B1: ADAMTS4 (parent)
chain: SFRKFRYGYNNVVTIPAGATHILV

Variants of: B1
Test: protein stability index of a GFP-peptide fusion (GPS, HEK-293T) (PSI 1-6); higher = more stable
Conditions: c terminus: a fixed tail appended
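Also: lentivirally expressed fusions sorted by FACS into six bins by GFP to DsRed ratio, PSI derived from sequencing read proportions per bin multiplied by bin number.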

Row | Variant | protein stability index
1 | SFRKFRYGYNNVVTISAGATHILV | 2.5
2 | SFRKFRYGYNNVVTIEAGATHILV | 2.83
3 | SFRKFRYGYNNVVTIDAGATHILV | 3.51
4 | SFRKFRYGYNNVVTIHAGATHILV | 2.4
5 | SFRKFRYGYNNVVTIFAGATHILV | 2.57
6 | SFRKFRYGYNNVVTIAAGATHILV | 2.65
7 | SFRKFRYGYNNVVTIKAGATHILV | 2.19
8 | SFRKFRYGYNNVVTIYAGATHILV | 2.49
9 | SFRKFRYGYNNVVTILAGATHILV | 1.81
10 | SFRKFRYGYNNVVTIMAGATHILV | 2.59
11 | SFRKFRYGYNNVVTIGAGATHILV | 2.36
12 | SFRKFRYGYNNVVTIVAGATHILV | 1.87
13 | SFRKFRYGYNNVVTICAGATHILV | 2.46
14 | SFRKFRYGYNNVVTITAGATHILV | 1.36
15 | SFRKFRYGYNNVVTIQAGATHILV | 2.25
16 | SFRKFRYGYNNVVTIIAGATHILV | 2.63
17 | SFRKFRYGYNNVVTIWAGATHILV | 2.05
18 | SFRKFRYGYNNVVTIRAGATHILV | 1.76
19 | SFRKFRYGINNVVTIPAGATHILV | 2.46
20 | SFRKFRYGVNNVVTIPAGATHILV | 1.65
21 | SFRKFRYGSNNVVTIPAGATHILV | 1.78
22 | SFRKFRYGLNNVVTIPAGATHILV | 2.75
23 | SFRKFRYGGNNVVTIPAGATHILV | 3.68
24 | SFRKFRYGTNNVVTIPAGATHILV | 2.05

Row | Variant | protein stability index
25 | SFRKFRYGNNNVVTIPAGATHILV | 2.14
26 | SFRKFRYGQNNVVTIPAGATHILV | 2.01
27 | SFRKFRYGWNNVVTIPAGATHILV | 3.46
28 | SFRKFRYGRNNVVTIPAGATHILV | 2.46
29 | SFRKFRYGMNNVVTIPAGATHILV | 1.9
30 | SFRKFRYGPNNVVTIPAGATHILV | 1.76
31 | SFRKFRYGKNNVVTIPAGATHILV | 2.07
32 | SFRKFRYGHNNVVTIPAGATHILV | 2.36
33 | SFRKFRYGYNNVVTCPAGATHILV | 2.03
34 | SFRKFRYGYNNVVTVPAGATHILV | 1.5
35 | SFRKFRYGYNNVVTQPAGATHILV | 1.4
36 | SFRKFRYGYNNVVTTPAGATHILV | 2.26
37 | SFRKFRYGYNNVVTHPAGATHILV | 2.01
38 | SFRKFRYGYNNVVTGPAGATHILV | 1.4
39 | SFRKFRYGYNNVVTFPAGATHILV | 1.55
40 | SFRKFRYGYNNVVTEPAGATHILV | 2.16
41 | SFRKFRYGYNNVVTRPAGATHILV | 1.44
42 | SFRKFRYGYNNVVTYPAGATHILV | 2.11
43 | SFRKFRYGYNNVVTPPAGATHILV | 1.52
44 | SFRKFRYGYNNVVTSPAGATHILV | 2.48
45 | SFRKFRYGYNNVVTDPAGATHILV | 2.35
46 | SFRKFRYGYNNVVTMPAGATHILV | 2.28
47 | SFRKFRYGYNNVVTNPAGATHILV | 1.57
48 | SFRKFRYGYNNVVTAPAGATHILV | 2.17

Row | Variant | protein stability index
49 | SFRKFRYGYNNVVTWPAGATHILV | 1.86
50 | SFRKFRYGYNNVVTKPAGATHILV | 2.41
51 | SFRKFRYGYNNVVTLPAGATHILV | 2.3
52 | SFRKFRYGYNNVVTIPAGCTHILV | 2.13
53 | SFRKFRYGYNNVVTIPAGDTHILV | 3.22
54 | SFRKFRYGYNNVVTIPAGGTHILV | 1.22
55 | SFRKFRYGYNNVVTIPAGFTHILV | 3.91
56 | SFRKFRYGYNNVVTIPAGETHILV | 3.97
57 | SFRKFRYGYGNVVTIPAGATHILV | 1.34
58 | SFRKFRYGYTNVVTIPAGATHILV | 2.18
59 | SFRKFRYGYRNVVTIPAGATHILV | 2.36
60 | SFRKFRYGYDNVVTIPAGATHILV | 3.41
61 | SFRKFRYGYENVVTIPAGATHILV | 1.56
62 | SFRKFRYGYWNVVTIPAGATHILV | 1.6
63 | SFRKFRYGYSNVVTIPAGATHILV | 1.99
64 | SFRKFRYGYYNVVTIPAGATHILV | 2.02
65 | SFRKFRYGYVNVVTIPAGATHILV | 1.81
66 | SFRKFRYGYFNVVTIPAGATHILV | 2.9
67 | SFRKFRYGYQNVVTIPAGATHILV | 1.94
68 | SFRKFRYGYCNVVTIPAGATHILV | 2.65
69 | SFRKFRYGYHNVVTIPAGATHILV | 1.84
70 | SFRKFRYGYMNVVTIPAGATHILV | 2.49
71 | SFRKFRYGYLNVVTIPAGATHILV | 4.32
72 | SFRKFRYGYINVVTIPAGATHILV | 3.13

Row | Variant | protein stability index
73 | SFRKFRYGYPNVVTIPAGATHILV | 1.86
74 | SFRKFRYGYKNVVTIPAGATHILV | 1.81
75 | SFRKFRYGYNNVVMIPAGATHILV | 3
76 | SFRKFRYGYNNVVWIPAGATHILV | 3.53
77 | SFRKFRYGYNNVVSIPAGATHILV | 2.65
78 | SFRKFRYGYNNVVLIPAGATHILV | 2.38
79 | SFRKFRYGYNNVVVIPAGATHILV | 2.61
80 | SFRKFRYGYNNVVAIPAGATHILV | 1.42
81 | SFRKFRYGYNNVVDIPAGATHILV | 3.24
82 | SFRKFRYGYNNVVNIPAGATHILV | 3.6
83 | SFRKFRYGYNNVVQIPAGATHILV | 2.2
84 | SFRKFRYGYNNVVHIPAGATHILV | 2.92
85 | SFRKFRYGYNNVVEIPAGATHILV | 2.79
86 | SFRKFRYGYNNVVYIPAGATHILV | 2.27
87 | SFRKFRYGYNNVVPIPAGATHILV | 1.6
88 | SFRKFRYGYNNVVRIPAGATHILV | 1.93
89 | SFRKFRYGYNNVVKIPAGATHILV | 3.9
90 | SFRKFRYGYNNVVCIPAGATHILV | 1.81
91 | SFRKFRYGYNNVVIIPAGATHILV | 2.36
92 | SFRKFRYGYNNVVGIPAGATHILV | 1.33
93 | SFRKFRYGYNNVVFIPAGATHILV | 2.74
94 | SFRKFRYGYNNVVTIPAPATHILV | 2.06
95 | SFRKFRYGYNNVVTIPAKATHILV | 2.41
96 | SFRKFRYGYNNVVTIPAFATHILV | 2.3

Row | Variant | protein stability index
97 | SFRKFRYGYNNVVTIPAAATHILV | 1.72
98 | SFRKFRYGYNNVVTIPARATHILV | 1.85
99 | SFRKFRYGYNNVVTIPAYATHILV | 1.64
100 | SFRKFRYGYNNVVTIPATATHILV | 2.71
101 | SFRKFRYGYNNVVTIPAHATHILV | 1.71
102 | SFRKFRYGYNNVVTIPALATHILV | 2
103 | SFRKFRYGYNNVVTIPANATHILV | 1.27
104 | SFRKFRYGYNNVVTIPAMATHILV | 1.54
105 | SFRKFRYGYNNVVTIPAIATHILV | 1.62
106 | SFRKFRYGYNNVVTIPAVATHILV | 1.63
107 | SFRKFRYGYNNVVTIPAQATHILV | 2.88
108 | SFRKFRYGYNNVVTIPAWATHILV | 1.9
109 | SFRKFRYGYNNVVTIPADATHILV | 2.71
110 | SFRKFRYGYNNVVTIPAEATHILV | 2.63
111 | SFRKFRYGYNNVVTIPASATHILV | 2.58
112 | SFRKFRYGYNNVVTIPACATHILV | 1.73
113 | SFRKFRYGYNNVHTIPAGATHILV | 1.74
114 | SFRKFRYGYNNVNTIPAGATHILV | 2.04
115 | SFRKFRYGYNNVQTIPAGATHILV | 1.8
116 | SFRKFRYGYNNVTTIPAGATHILV | 2.11
117 | SFRKFRYGYNNVYTIPAGATHILV | 1.49
118 | SFRKFRYGYNNVDTIPAGATHILV | 2.74
119 | SFRKFRYGYNNVRTIPAGATHILV | 3.77
120 | SFRKFRYGYNNVWTIPAGATHILV | 3.05

Row | Variant | protein stability index
121 | SFRKFRYGYNNVLTIPAGATHILV | 3.1
122 | SFRKFRYGYNNVITIPAGATHILV | 2.07
123 | SFRKFRYGYNNVMTIPAGATHILV | 1.9
124 | SFRKFRYGYNNVETIPAGATHILV | 2.73
125 | SFRKFRYGYNNVPTIPAGATHILV | 2.12
126 | SFRKFRYGYNNVCTIPAGATHILV | 2.92
127 | SFRKFRYGYNNVKTIPAGATHILV | 1.97
128 | SFRKFRYGYNNVGTIPAGATHILV | 2.1
129 | SFRKFRYGYNNVSTIPAGATHILV | 1.82
130 | SFRKFRYGYNNVFTIPAGATHILV | 2.6
131 | SFRKFRYGYNNVATIPAGATHILV | 3.18
132 | SFRKFRYGYNNWVTIPAGATHILV | 2.09
133 | SFRKFRYGYNNGVTIPAGATHILV | 3.44
134 | SFRKFRYGYNNLVTIPAGATHILV | 2.58
135 | SFRKFRYGYNNIVTIPAGATHILV | 3.16
136 | SFRKFRYGYNNHVTIPAGATHILV | 2.33
137 | SFRKFRYGYNNTVTIPAGATHILV | 3.03
138 | SFRKFRYGYNNCVTIPAGATHILV | 2.95
139 | SFRKFRYGYNNRVTIPAGATHILV | 1.7
140 | SFRKFRYGYNNFVTIPAGATHILV | 1.71
141 | SFRKFRYGYNNPVTIPAGATHILV | 2.13
142 | SFRKFRYGYNNSVTIPAGATHILV | 2.08
143 | SFRKFRYGYNNAVTIPAGATHILV | 2.25
144 | SFRKFRYGYNNQVTIPAGATHILV | 1.26

Row | Variant | protein stability index
145 | SFRKFRYGYNNMVTIPAGATHILV | 2.29
146 | SFRKFRYGYNNEVTIPAGATHILV | 2.4
147 | SFRKFRYGYNNYVTIPAGATHILV | 2.88
148 | SFRKFRYGYNNNVTIPAGATHILV | 1.87
149 | SFRKFRYGYNNDVTIPAGATHILV | 3.98
150 | SFRKFRYGYNNKVTIPAGATHILV | 2.34
151 | SFRKFRYGYNNVVTIPDGATHILV | 1.64
152 | SFRKFRYGYNNVVTIPIGATHILV | 1.86
153 | SFRKFRYGYNNVVTIPWGATHILV | 2.46
154 | SFRKFRYGYNNVVTIPMGATHILV | 1.51
155 | SFRKFRYGYNNVVTIPFGATHILV | 1.96
156 | SFRKFRYGYNNVVTIPHGATHILV | 1.78
157 | SFRKFRYGYNNVVTIPSGATHILV | 1.78
158 | SFRKFRYGYNNVVTIPQGATHILV | 1.33
159 | SFRKFRYGYNNVVTIPPGATHILV | 1.98
160 | SFRKFRYGYNNVVTIPTGATHILV | 1.97
161 | SFRKFRYGYNNVVTIPKGATHILV | 1.57
162 | SFRKFRYGYNNVVTIPYGATHILV | 1.6
163 | SFRKFRYGYNNVVTIPRGATHILV | 2
164 | SFRKFRYGYNNVVTIPGGATHILV | 1.95
165 | SFRKFRYGYNNVVTIPVGATHILV | 1.24
166 | SFRKFRYGYNNVVTIPCGATHILV | 2.36
167 | SFRKFRYGYNNVVTIPLGATHILV | 2.31
168 | SFRKFRYGYNNVVTIPNGATHILV | 1.78

Row | Variant | protein stability index
169 | SFRKFRYGYNNVVTIPEGATHILV | 1.61
170 | SFRKFRYGYNRVVTIPAGATHILV | 1.57
171 | SFRKFRYGYNAVVTIPAGATHILV | 3.51
172 | SFRKFRYGYNTVVTIPAGATHILV | 2.59
173 | SFRKFRYGYNYVVTIPAGATHILV | 1.19
174 | SFRKFRYGYNFVVTIPAGATHILV | 1.71
175 | SFRKFRYGYNGVVTIPAGATHILV | 2.89
176 | SFRKFRYGYNIVVTIPAGATHILV | 2.04
177 | SFRKFRYGYNSVVTIPAGATHILV | 2.94
178 | SFRKFRYGYNWVVTIPAGATHILV | 1.9
179 | SFRKFRYGYNVVVTIPAGATHILV | 2.57
180 | SFRKFRYGYNQVVTIPAGATHILV | 1.56
181 | SFRKFRYGYNLVVTIPAGATHILV | 1.53
182 | SFRKFRYGYNHVVTIPAGATHILV | 3.34
183 | SFRKFRYGYNCVVTIPAGATHILV | 2.42
184 | SFRKFRYGYNMVVTIPAGATHILV | 2.27
185 | SFRKFRYGYNEVVTIPAGATHILV | 2.07
186 | SFRKFRYGYNPVVTIPAGATHILV | 2.59
187 | SFRKFRYGYNKVVTIPAGATHILV | 1.61
188 | SFRKFRYGYNDVVTIPAGATHILV | 2.92
